# In the nanobody polyreactivity screen of Harvey et al. (2022):
# Assay: yeast display, Sf9 membrane polyspecificity reagent, FACS + sequencing; frameworks hold sequencing errors
# Method in brief: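 Nanobodies from a synthetic yeast display library (Saccharomyces cerevisiae BJ5465), induced 36–48 hours with galactose, were stained 1 hour at 4 °C with 10% biotinylated, detergent-solubilized Sf9 membrane reagent, enriched on streptavidin microbeads, then FACS-sorted. Anti-HA (expression) and streptavidin (reagent binding) fluorescence set low and high (top ~1%) gates. Polyreactivity labels come from the gate of origin. Genes were colony-PCR amplified, MiSeq 2 × 250 sequenced and filtered by CDR length.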
row,Sequence,polyreactivity (PSR sort gate)
1,QVQLVESGGGLVQAGGSLRLSCAASGSIFSSYTMGWYRQAPGKERELVAAISSTGSTYYADSVKGRFTISRDNAKNTVYLQMNSLKPEDTAVYYCAARGWYWQQYKGHTRYDYWGQGTQVTVSS,high polyreactivity
2,QVQLVESGGGLVQAGGSLRLSCAASGSIFSTYAMGWYRQAPGKERELVAAINSGDSTSYADSVKGRFTISRDNAKNTVYLQMNSLKPEDTAVYYCAAKTGGYWYLRRTGRYESWGQGTQVTVSS,low polyreactivity
3,QVQLVESGGGLVQAGGSLRLSCAASGSIFSTYAMGWYRQAPGKERELVAAITRRGGSTYYADSVKGRFTISRDNAKNTVYLQMNSLKPEDTAVYYCNAAAKSRMDYWGQATQVTVSS,high polyreactivity
4,QVQLVESGGGLVQAGGSLRLSCAASGSIFSTYGMGWYRQAPGKERELVAAITTSGGRTYYADSVKGRFTISRDNAKNTVYLQMKSLKPEVTAVYYCKAVRGGRYGLDYWGQGTQVNVSS,high polyreactivity
5,QVQLVESGGGLVQAGGSLRLSCAASGSIFSVNTMGWYRQAPGKERELVAAISESGDGTYYADSVKGRFTISRDNAKNTVYLQMNSLKPEDTAVYYCNADRQKGGGYYPHEFDYWGQGTQVTVSS,low polyreactivity
6,QVQLVESGGGLVQAGGSLRLSCAASGSIFSVYAMGWYIQAPGKEREFVASISGGSGRTYYADSVKGRFTISRDNAKNTVYLQMNSLKPEDTAVYYCAAAYWAYDTGKMGYWGQGTQVTVSS,low polyreactivity
7,QVQLVESGGGLVQAGGSLRLSCAASGSIFSWNAMGWYRQAPGKERELVAGITWSGGGTSYADSVKGRFTISRDNAKNTVYLQMNSLKPEDTAVYYCAKEWIFDFNYWGQGTQVTVSS,low polyreactivity
8,QVQLVESGGGLVQAGGSLRLSCAASGSIFSWYAMGWYRQAPGKERELVAAISSRGGSTYYADSVKGRFTISRDTAKNTVYLQMYSLKPEDTAVYYCNTTYGYSTYWASGKYDYWGQGTQVTVSS,low polyreactivity
9,QVQLVESGGGLVQAGGSLRLSCAASGSIFSYNAMGWDRQAPGKESELVAAITSGGGTNYADSVKGRFTISRDNAKNTVYLQINSLKPEDTAVYYCNAVPNYYDYDSWGQGTQVTVSS,high polyreactivity
10,QVQLVESGGGLVQAGGSLRLSCAASGSIFSYNAMGWYRQAPGKERELVADITGSGGSTYYADSVKGRFTISRDNAKNTVYLQMNSLKPEDTAVYYCNAVGQYYYLGYDYWGQGTQVTVSS,low polyreactivity
11,QVQLVESGGGLVQAGGSLRLSCAASGSIFSYNVIGWYRQAPGKEREMVATITVDGTSTYYADSVKGRFTISRDNAKNTVYLQMNSLKPEDTAVYDCAADETASFTQEYEEMEYWGQGTQVTVSS,low polyreactivity
12,QVQLVESGGGLVQAGGSLRLSCAASGSIFSYYAMGRYRQAPGKEREIVAAISWSGGSTYYADSVKGRFTISRDNAKNTVYLQMNSLKPEDTAVYYCAAELSLSWLVPDVPYYYWGQGTQVTVSS,low polyreactivity
13,QVQLVESGGGLVQAGGSLRLSCAASGSIFSYYAMGWSRQAPGKERELVATISWSGGSTYYADSVKGRFTISRDNAKNTVYLQMNSLKPEDTAVYYCAARIWTGRGRKLGYGYDYWGQGTQVTVSS,low polyreactivity
14,QVQLVESGGGLVQAGGSLRLSCAASGSIFSYYAMGWYRQAPGKERELVAAISKRGASTYYADSVKGRFTISRDNAKNTVYLQMNSLKPEDTAVYYCAAYRQGSAYDYWGQGTQVTVSS,high polyreactivity
15,QVQLVESGGGLVQAGGSLRLSCAASGSIFSYYAMGWYRQAPGKERELVAAISRGGSTYYADSVKGRFTISRDKAKNTVYLQMNSLKPEDTAVYYCNVDSFRYRHTGYGYTRYGYWGQGTQVTVSS,high polyreactivity
16,QVQLVESGGGLVQAGGSLRLSCAASGSIFSYYAMGWYRQAPGKERELVASITYSGGSTYYADSVKGRFTISRDNAKNTVYLQMNSLKPEDTAVYYCAAPLAYEGDYWGQGTQVTVSS,low polyreactivity
17,QVQLVESGGGLVQAGGSLRLSCAASGSIFSYYAMGWYRQAPGKERELVATISNSGVSTYYADSVKGRFTISRDNAKNTVYLQMNSLKPEDTAVYYCAKEWLYYNGFFRSYYWGQGTQVTVSS,high polyreactivity
18,QVQLVESGGGLVQAGGSLRLSCAASGSIFSYYAMGWYRQAPGKERELVAVISSSGGRTYYADSVKGRFTISRDNAKNTVYLQMNSLKPEDTAVYYCARERWWGGSDYWGQGTQVTVSS,high polyreactivity
19,QVQLVESGGGLVQAGGSLRLSCAASGSIFSYYAMGWYRQAPGKETEVVAAISQNGGSTYYADSVKGRVTISRDNAKNTVYLQMNSLKPEDTAVYYCNAYSVYVRGEYWGQGTQVTVSS,high polyreactivity
20,QVQLVESGGGLVQAGGSLRLSCAASGSIFSYYAMGWYRQSPGNERELVAAITWSGGSTNYADSVKGRFTISRDNAKNTVYLQMTSLKPEDTAVYYCAADYWAWGKNEYDYWGQGTQVTVSS,low polyreactivity
21,QVQLVESGGGLVQAGGSLRLSCAASGSIFSYYVMGWYRQAPGKERELVARINWSSTSTYYADSVKGRFTISRDNAKNTVYLQMHSLKPEDTAVYYCAAAKRYGRYYEYDYWGQGTQVTVSS,high polyreactivity
22,QVQLVESGGGLVQAGGSLRLSCAASGSIFTDNAMGWYKQAPGKERELVAVISSGGRTYYADSVKGRFTISRDNAKNTVYLQMNSLKPEDTAVYYCKGQKRYPFSGIEDYWGQGTQVNVSS,high polyreactivity

row,Sequence,polyreactivity (PSR sort gate)
1,QVQLVESGGGLVQAGGSLRLSCAASGSIFTDNAMGWYRQAPGKERELVAAITSNGGSTYYADSVKGRFTISRDNAKNTVYLQMNSLKPEDTAVYYCAADSLYREDDYWGQGTQVTVSS,low polyreactivity
2,QVQLVESGGGLVQAGGSLRLSCAASGSIFTFYAMGWYRQAPGKERELVATINRIGGNTYYADSVKGRFTISRDNAKNTVYLQMNSLKPEDTAVYYCAKLYGSANGYDYWGQGTQVSVSS,low polyreactivity
3,QVQLVESGGGLVQAGGSLRLSCAASGSIFTFYAMGWYRQAPGKERELVATITWLGGSTYADAVKGRFTISRDNAKNTVYLQMNSLKPEDTAVYYCNADYRSYWYKLDYWGQGTQVTVSS,high polyreactivity
4,QVQLVESGGGLVQAGGSLRLSCAASGSIFTGYAMGWYRQAPGKERELVAAIRTRGGSTYYADSVKGRFTISRDNAKNTVYLQMNSLKPEDTAVYYCAKRYYGWYGNFDYWGQGTLVTVSS,high polyreactivity
5,QVQLVESGGGLVQAGGSLRLSCAASGSIFTGYAMGWYRQARGKESELVAAIDDSGDSTYYADSVKVRFTISRDNATNTVYLQMNSLKPEDTAVYYSKAEYRVNKEYDYWGQGTQVTVSS,low polyreactivity
6,QVQLVESGGGLVQAGGSLRLSCAASGSIFTGYTMGRYRQATGKERELVAAITWNGGSTYYADSVKGRFTISRDNAKNTVYLQMNSLKPEDTAVYYCAAVPYTPSPYTYGYWGQGTQVTVSS,high polyreactivity
7,QVQLVESGGGLVQAGGSLRLSCAASGSIFTHNAMGWSRQAPGKERELVATISYGGGRTYYADSVKGRFTISRDNAKNTVYLQMNSLKPEDTAVYYCNALRGGPFRWHGYYYWGQGTQVTVSS,low polyreactivity
8,QVQLVESGGGLVQAGGSLRLSCAASGSIFTHNAMGWYRQAHGKERELVAAISSGGSTNYADSVKGRFTISRDNAKNTVYLQMNSLKPEDTAVYYCAKSIDGWYWRRRRYDYWGQGTQVTVSS,low polyreactivity
9,QVQLVESGGGLVQAGGSLRLSCAASGSIFTHNAMGWYRQAPGKERELVATISYGGGRTYYADSVKGRFTISRDNAKNTVYLQMNSLKPEDTAVYYCAADVYWYAYVWRKYGYWGQGTQVTVSS,low polyreactivity
10,QVQLVESGGGLVQAGGSLRLSCAASGSIFTHYAMGWYRQAPGKERELVAAISRRGGSTYYADSVKGRFTISRDNAKNTVYLQMNSLKPEDTAVYYCAVRLYLEMDYWGQGTQVTVSS,high polyreactivity
11,QVQLVESGGGLVQAGGSLRLSCAASGSIFTHYAMGWYRQAPGKERELVAAITWSGGSTYYADSVKGRFTISRDNAKYTVYLQMNSLKPEDTAVYYCNVAWVGVSLVYGPFEYDYWGQGTQVTVSS,high polyreactivity
12,QVQLVESGGGLVQAGGSLRLSCAASGSIFTIYAMGWYRQAPGKERELVAAINRGDGTNYADSVKGRFTISRDNAKNTVYLQMNSLKPEDTAVYYCAAKAYTNYDRQVNLRRYYWGQGTQVTVSS,high polyreactivity
13,QVQLVESGGGLVQAGGSLRLSCAASGSIFTKYAMGWYRQAPGKERELVAAISKTGGSTYYADSVKGRFTISRDTAKNTVYLQMNSLKPEDTAVYYCNAAGGYSVYKRGRDYWGQGTQVTGSS,high polyreactivity
14,QVQLVESGGGLVQAGGSLRLSCAASGSIFTKYVMGWYRQAPGKERELVAAITYRGGSTYYADSVKGRFTISRDNAKNTVYLQMNSLKPEDTAVYDCAAEYYRYKYTAYRTDDYWGQGTQVTVSS,high polyreactivity
15,QVQLVESGGGLVQAGGSLRLSCAASGSIFTLYAIGWSRQAPGKERELVAAISRRGGSTYYADSVKGRFTISRDNAKNTVYLQMNSLKPEDTAVYYCNAYRSNYLIGSSSYGLDYWGHGTQVTVSS,high polyreactivity
16,QVQLVESGGGLVQAGGSLRLSCAASGSIFTLYAMGWYRQAPGKERELVAAIDSGGNTNYADSVKGRFTISRDNAKNTVYLQMNSLKPEDTAVYYCAKRHATEFDYWGQGTQVTVSS,low polyreactivity
17,QVQLVESGGGLVQAGGSLRLSCAASGSIFTLYAMGWYRQAPGKERELVAAITWTGGSTYYADSVKGRFTISRDNAKNTVYLQMNSLKPEDTAVYYCATDGYWQSNGAFYYVARHGGYWGQGTQVTVSS,low polyreactivity
18,QVQLVESGGGLVQAGGSLRLSCAASGSIFTLYVMGWYRQAPGKERELVAAITWSGGSTYYADSVKGRFTISRDNAKNTVYLQMNSLKTEDPAVYYCNADVRWDSQDYYYWGQGTQVTVSS,low polyreactivity
19,QVQLVESGGGLVQAGGSLRLSCAASGSIFTNAMGWYIQAPGKERELVAAISSSGGSTYYADSVKGRFTISRDNANNTVYLQMNSLKPEDTAVYYCSADHFGGRDYWGQGTQVTVSS,low polyreactivity
20,QVQLVESGGGLVQAGGSLRLSCAASGSIFTNYAMGWYRQAPGKERELVATITYYADSVKGRFTISRDNAKNTVYLQMNSLKPVDTAVYYCAAVRSGPGYDYWGQGTQVTVSS,low polyreactivity
21,QVQLVESGGGLVQAGGSLRLSCAASGSIFTPNAMGWYRQAPGKERELVAAISQSGGSTYYADSVKGRFTISRDNAMNTVYLQMNSLKPEDTAVYYCGASVRHRGYDYWGQGTQVTVSS,high polyreactivity
